Experimental findings from patent publication US20230131338A1 (Regeneron, published 2023) are described below.

For experiment [1], the target named is recombinant mouse FXI with C-terminal myc-myc-hexahistidine tag (mFXI.mmH) (mouse, UniProt Q91Y47 19-624, limits assumed). The experiment can be described thus: SPR, REGN9933 surface-captured, 25°C, pH 7.4. (In general: Surface plasmon resonance follows binding to a sensor surface in real time, without labels.)
Experiment [2] concerns the target T1, cynomolgus monkey FXI (in pooled cynomolgus monkey plasma) (cynomolgus monkey, UniProt A0A2K5VVW4 19-624). Put plainly: cell-based or functional assay.
The target of experiment [3] is T1, cynomolgus monkey FXI (in pooled …). The experiment can be described thus: cell-based or functional assay. This is another data set of the same source.
In experiment [4] the target is recombinant rabbit FXI with C-terminal myc-myc-hexahistidine tag (rbFXI.mmH) (rabbit, UniProt G1SSQ6 19-623). Put plainly: SPR, REGN9933 surface-captured, mmH-tagged protein injected, 25°C, pH 7.4, 1:1 steady-state model.

B1: REGN9933 (antibody, human IgG4 S228P, kappa, V domains shown)
VH: EVQLVESGGGLVQPGGSLRLSCAASGFTFSNYAMNWVRQAPGKGLDWVSFIRSGGDTTYYADSVKGRFTISRDNSKNTLYLQMNSLRAEDTAVYYCAKVHPYTWDYGDAFDIWGQGTMVTVSS
VL: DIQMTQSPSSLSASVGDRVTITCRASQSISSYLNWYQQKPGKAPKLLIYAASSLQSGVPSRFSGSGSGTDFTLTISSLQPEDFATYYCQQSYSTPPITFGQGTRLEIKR
notes: Fully human; hinge-stabilized IgG4 (IgG4P) Fc; also called H4H29790P2; subject anti-FXI mAb
For B1, the binding result in experiment [1] is “no binding (tested: 50 nM)”. For the same molecule, the “concentration at which aPTT doubles relative to baseline, pooled cynomolgus monkey plasma” value in experiment [2] came to 1.1 µM. For the same molecule, in experiment [3], the “Fold Increase in Clotting Time (aPTT w/EA), maximum change, monkey plasma” value was found to be 2.1 fold; the “TGA % ETP (induced w/EA), relative to baseline, monkey plasma” value amounted to 66%; the “TGA % Peak Thrombin (induced w/EA), relative to baseline, monkey plasma” value is 43%; the “TGA Fold Increase in Lag Time (induced w/EA), maximum change, monkey plasma” value was found to be 2.2 fold. Besides, the Kd in experiment [4] came out at 171 nM.

The Kd is the free concentration of one partner at which half of the binding sites on the other are occupied at equilibrium, for simple one-to-one binding.
